Reference: doi:10.1101/2024.09.10.612331

Tests used:
[1] = target: ALX4 homeodomain V241R (V28R) (mouse cDNA (identical to human in this region, as the paper says)); assay: native gel or EMSA
[2] = target: ALX4 homeodomain R215A (R2A) (mouse cDNA (identical to human in this region, as the paper says)); assay: native gel or EMSA
[3] = target: ALX4 homeodomain R216A (R3A) (mouse cDNA (identical to human in this region, as the paper says)); assay: native gel or EMSA
[4] = target: ALX4 homeodomain (aa 209-274) (mouse cDNA (identical to human in this region, as the paper says)); assay: native gel or EMSA
[5] = target: ALX4 homeodomain (aa 209-274) (mouse cDNA (identical to human in this region, as the paper says)); assay: crystal structure
[6] = target: ALX4 R218Q (mouse cDNA (human protein sequence …, UniProt O35137 158-291, R206Q)); assay: ITC
Chain of ALX4 R218Q (mouse cDNA (O35137 158-291 R206Q): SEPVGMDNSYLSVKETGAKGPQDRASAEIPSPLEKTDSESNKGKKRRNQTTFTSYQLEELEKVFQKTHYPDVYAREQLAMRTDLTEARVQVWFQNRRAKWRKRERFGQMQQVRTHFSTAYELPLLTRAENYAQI

[7] = target: ALX4 R215A;R216A (mouse cDNA (human protein sequence …, UniProt O35137 158-291, R203A;R204A)); assay: ITC
Chain of ALX4 R215A;R216A (mouse cDNA (O35137 158-291 R203A/R204A): as the sequence (O35137 158-291 R206Q) above, with R46A, R47A, Q49R counted along it

[8] = target: ALX4 WT (ITC, mutant-series EMSA) (mouse cDNA (human protein sequence …, UniProt O35137 158-291)); assay: ITC
Chain of ALX4 WT (ITC, mutant-series EMSA) (mouse cDNA (O35137 158-291, stated change not applied): as the sequence (O35137 158-291 R206Q) above, with Q49R counted along it

[9] = target: ALX4 R216G (mouse cDNA (human protein sequence …, UniProt O35137 158-291, R204G)); assay: ITC
Chain of ALX4 R216G (mouse cDNA (O35137 158-291 R204G): as the sequence (O35137 158-291 R206Q) above, with R47G, Q49R counted along it

[10] = target: ALX4 R216A (mouse cDNA (human protein sequence …, UniProt O35137 158-291, R204A)); assay: ITC
Chain of ALX4 R216A (mouse cDNA (O35137 158-291 R204A): as the sequence (O35137 158-291 R206Q) above, with R47A, Q49R counted along it

[11] = target: ALX4 R272P (mouse cDNA (human protein sequence …, UniProt O35137 158-291, R260P)); assay: ITC
Chain of ALX4 R272P (mouse cDNA (O35137 158-291 R260P): as the sequence (O35137 158-291 R206Q) above, with Q49R, R103P counted along it

[12] = target: ALX4 R215A (mouse cDNA (human protein sequence …, UniProt O35137 158-291, R203A)); assay: ITC
Chain of ALX4 R215A (mouse cDNA (O35137 158-291 R203A): as the sequence (O35137 158-291 R206Q) above, with R46A, Q49R counted along it

[13] = target: ALX4 V241R (mouse cDNA (human protein sequence …, UniProt O35137 158-291, V229R)); assay: ITC
Chain of ALX4 V241R (mouse cDNA (O35137 158-291 V229R): as the sequence (O35137 158-291 R206Q) above, with Q49R, V72R counted along it

[14] = target: ALX4 Q225E (mouse cDNA (human protein sequence …, UniProt O35137 158-291, Q213E)); assay: ITC
Chain of ALX4 Q225E (mouse cDNA (O35137 158-291 Q213E): as the sequence (O35137 158-291 R206Q) above, with Q49R, Q56E counted along it

[15] = target: ALX4 K211E (mouse cDNA (human protein sequence …, UniProt O35137 158-291, K199E)); assay: ITC
Chain of ALX4 K211E (mouse cDNA (O35137 158-291 K199E): as the sequence (O35137 158-291 R206Q) above, with K42E, Q49R counted along it

Molecule: ALX4 homeodomain V241R (V28R) (domain or fragment)
- Tau (cooperativity factor on the P3 DNA site) [1]: 0.327

Molecule: ALX4 homeodomain R215A (R2A) (domain or fragment)
- fold reduction of cooperativity (Tau on the P3 site) against wild type [2]: 5 fold

Molecule: ALX4 homeodomain R216A (R3A) (domain or fragment)
- fold reduction of cooperativity (Tau on the P3 site) against wild type [3]: 10 fold

Molecule: ALX4 homeodomain (aa 209-274) (domain or fragment)
- Tau (cooperativity factor on the P3 DNA site) [4]: 110
- Tau (cooperativity factor on the P4 DNA site) [4]: 1.5
- stoichiometry N [5]: 2

B1: 14-mer monomer site ITC duplex (dsDNA)
DNA 1: CGCTAATTAGCTCG
DNA 2: CGAGCTAATTAGCG
- binding result [6]: no binding
- Kd [7]: 0.214 ± 0.0398 µM
- Kd [8]: 0.0155 ± 0.00098 µM
- Kd [9]: 0.0418 ± 0.00881 µM
- Kd [10]: 0.0152 ± 0.00463 µM
- Kd [11]: 0.0436 ± 0.0121 µM
- Kd [12]: 0.0304 ± 0.0185 µM
- Kd [13]: 0.00745 ± 0.00522 µM
- Kd [14]: 0.0525 ± 0.0123 µM
- Kd [15]: 0.0215 ± 0.00768 µM
